Data set [1] has as its target K48C, K63C-linked branched Ub trimer.
The target of data set [2] is K11C, K48C-linked branched Ub trimer.
The target in data set [3] is K6C, K48C-linked branched Ub trimer.

B1: AMSH (protein)
chain: MSDHGDVSLPPEDRVRALSQLGSAVEVNEDIPPRRYFRSGVEIIRMASIYSEEGNIEHAFILYNKYITLFIEKLPKHRDYKSAVIPEKKDTVKKLKEIAFPKAEELKAELLKRYTKEYTEYNEEKKKEAEELARNMAIQQELEKEKQRVAQQKQQQLEQEQFHAFEEMIRNQELEKERLKIVQEFGKVDPGLGGPLVPDLEKPSLDVFPTLTVSSIQPSDCHTTVRPAKPPVVDRSLKPGALSNSESIPTIDGLRHVVVPGRLCPQFLQLASANTARGVETCGILCGKLMRNEFTITHVLIPKQSAGSDYCNTENEEELFLIQDQQGLITLGWIHTHPTQTAFLSSVDLHTHCSYQMMLPESVAIVCSPKFQETGFFKLTDHGLEEISSCRQKGFHPHSKDPPLFCSCSHVTVVDRAVTITDLR
With B1, the “DUB-catalyzed hydrolysis of Ub trimer, SDS-PAGE and western blot” value (“DUB-catalyzed hydrolysis of Ub trimer” below) in data set [1] was “the presence of a Ub appendage at position 48 does not influence cleavage of the K63C-linkage as indicated by the formation of Ub2 and Ub upon hydrolysis of the K48C, K63C-linked trimer”.

B2: A20-OTU (protein)
chain: LVALKTNGDGNCLMHATSQYMWGVQDTDLVLRKALFSTLKETDTRNFKFRWQLESLKSQEFVETGLCYDTRNWNDEWDNLIKMASTDTPMARSGLQYNSLEEIHIFVLCNILRRPIIVISDKMLRSLESGSNFAPLKVGGIYLPLHWPAQECYRYPIVLGYDSHHFVPLVTL
For B2, the “DUB-catalyzed hydrolysis of Ub trimer” value in data set [1] was “A20-OTU cleaved the K48C-linkage in K11C, K48C and K48C, K63C-linked trimers”; in data set [2], “A20-OTU cleaved the K48C-linkage in K11C, K48C and K48C, K63C-linked trimers”; in data set [3], “the same linkage remained intact in the K6C, K48C-linked trimer”.

B3: IsoT (protein)
chain: MAELSEEALLSVLPTIRVPKAGDRVHKDECAFSFDTPESEGGLYICMNTFLGFGKQYVERHFNKTGQRVYLHLRRTRRPKEEDPATGTGDPPRKKPTRLAIGVEGGFDLSEEKFELDEDVKIVILPDYLEIARDGLGGLPDIVRDRVTSAVEALLSADSASRKQEVQAWDGEVRQVSKHAFSLKQLDNPARIPPCGWKCSKCDMRENLWLNLTDGSILCGRRYFDGSGGNNHAVEHYRETGYPLAVKLGTITPDGADVYSYDEDDMVLDPSLAEHLSHFGIDMLKMQKTDKTMTELEIDMNQRIGEWELIQESGVPLKPLFGPGYTGIRNLGNSCYLNSVVQVLFSIPDFQRKYVDKLEKIFQNAPTDPTQDFSTQVAKLGHGLLSGEYSKPVPESGDGERVPEQKEVQDGIAPRMFKALIGKGHPEFSTNRQQDAQEFFLHLINMVERNCRSSENPNEVFRFLVEEKIKCLATEKVKYTQRVDYIMQLPVPMDAALNKEELLEYEEKKRQAEEEKMALPELVRAQVPFSSCLEAYGAPEQVDDFWSTALQAKSVAVKTTRFASFPDYLVIQIKKFTFGLDWVPKKLDVSIEMPEELDISQLRGTGLQPGEEELPDIAPPLVTPDEPKGSLGFYGNEDEDSFCSPHFSSPTSPMLDESVIIQLVEMGFPMDACRKAVYYTGNSGAEAAMNWVMSHMDDPDFANPLILPGSSGPGSTSAAADPPPEDCVTTIVSMGFSRDQALKALRATNNSLERAVDWIFSHIDDLDAEAAMDISEGRSAADSISESVPVGPKVRDGPGKYQLFAFISHMGTSTMCGHYVCHIKKEGRWVIYNDQKVCASEKPPKDLGYIYFYQRVAS
Regarding B3, the “DUB-catalyzed hydrolysis of Ub trimer” value in data set [1], in data set [2] and in data set [3] was “IsoT efficiently processed all three trimers as evidenced by Western blot analysis” each time.

Values taken from patent US20130281659.
